Experimental data from patent US20240002500A1 (GUANGDONG FAPON BIOPHARMA, published 2024).

B1: 14Tigit-1-1 mouse monoclonal antibody (antibody, V domains shown)
VH: DVQLQESGPGLVKPSQSLSLTCTVTGYSITSDYAWNWIRQFPGNKLEWMGYISYSGSTRSNPSLKSRISITRDTSKNQFFLQLNSMTAEDTATYYCGGWEVRNYYAMDYWGQGTSVTVSS
VL: DIVMTQSHKFMSTSVGDRVSITCKASQHVSTAVAWYQQKPGQSPKLLIYSASYRYTGVPDRFTGSGSGTDFTFTISSVQAEDLAVYYCQQHYNTPWTFGGGTKLEIKR
notes: Mouse monoclonal antibody from hybridoma
B2: 3Tigit-16 mouse monoclonal antibody (antibody, V domains shown)
VH: EVQLQQSGPELVKPGASVKMSCKASGFTFTDYFMDWVKQSRGASFEWIGRLNPNNGRTSYNQKFKGKATLTVDKSSSTAYMELNSLTSEDSAVYYCARGDLGRWYFDVWGAGTTVTVSS
VL: QIVLTQSPAIMSASPGEKVTMTCSASSSVSYMHWYQQKSGTSPKRWIYDTSKLASGVPTRFSGSGSGTSYSLTISSMEAEDAASYFCQQWSSNSLTFGAGTKLELKR
notes: as for B1
B3: 3Tigit-29 mouse monoclonal antibody (antibody, V domains shown)
VH: EVQLQQSGPELVKPGASVKISCKASGYTFTDYNMHWVKQSLGKSLEWIGYVNSFNGNTGYSQKFKSKVTLTVDRSSRTAYMDLRSLTSEDSAVFYCARSSRGGFAYWGQGTLVTVSA
VL: QIVLTQSPAIMSASPGEKVTMTCSASSSVSYMHWYQQKSGTSPKRWIYDTSKLASGVPARFSGSVSGTSYSLTISSMEAEDAATYYCQQWSSNSLTFGAGTKLELKR
notes: as for B1
B4: 3Tigit-12 mouse monoclonal antibody (antibody, V domains shown)
VH: QVQLQQSGAELVRPGTSVKMSCKAAGYTFTNYWIGWVKQRPGHGLEWIGDIYPGGGYTNYDEKFKGKATLTADTSSRTAYMQLSSLTSEDSAIYHCVNGGYGSTYGYFDVWGAGTTVTVSS
VL: DIVMSQSPSSLPVSVGEKVTMSCKSSQSLLFSSDQKNYLAWYQQKPGQSPKLLIYWASTRESGVPDRLTGSGSGTDFTLTISSVKAEDLAVYYCQQYHKYPFTFGGGTKLEIKR
notes: as for B1
B5: Tigit-5 mouse monoclonal antibody (antibody, V domains shown)
VH: QVQLQQPGAELVRPGASVKLSCKASGYSFTSYWMNWVKQRPGQGLEWIGMIRPSDSETRLNQMFKDKATLTVDKSSSTAYMQLSSPTSDDSAVYYCAGIHDYGHGAYWGQGTLVTVSA
VL: DIQMIQSPASLSVSVGETVTITCRASENIYSNLAWYQQKQGKSPQLLVYAASHLPDGVPSRFSGSGSGTQYSLKINSLQSEDFGSYYCQHFWGTPRTFGGGTKLEIKR
notes: as for B1

Key:
[1] = target: T1, full-length human TIGIT on cells (human, UniProt Q495A1 22-244); test: FACS titration on PBMC of healthy people (natural TIGIT), PE goat anti-mouse IgG; number as printed beside the name, the marker of the legend lies on the leftmost curve
T1 construct: whole, on cells; The same protein is used for CHO-hTIGIT, PBMC and NK92-hTIGIT; the cells are named under assay; also called CHO-hTIGIT; hTIGIT
T1 sequence (looked up): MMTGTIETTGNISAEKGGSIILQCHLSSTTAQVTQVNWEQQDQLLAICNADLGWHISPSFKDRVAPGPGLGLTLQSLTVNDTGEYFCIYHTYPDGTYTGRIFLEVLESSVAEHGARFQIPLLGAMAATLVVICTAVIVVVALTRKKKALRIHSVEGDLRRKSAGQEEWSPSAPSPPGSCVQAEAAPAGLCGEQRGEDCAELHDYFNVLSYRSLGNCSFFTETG
Procedure: (§1) In order to verify that the prepared anti-human TIGIT antibody may effectively bind to naturally expressed TIGIT, the following experiments were specifically performed. PBMC cells in healthy people to be detected were counted, centrifuged at 300 g for 5 min, resuspended with an FCM buffer; and cell density was adjusted to 4E+06 cell/mL for later use. Samples to be detected (including a positive control antibody and a mouse monoclonal antibody) were diluted with the FCM buffer to 20 μg/mL, and then the FCM buffer was used to perform 3× serial dilutions of 12 concentration points; and the isotype control antibody was diluted with the FCM buffer to 20 μg/mL. According to an experimental design, in each well, 50 μL of the antibody and 50 μL of the cell (the volume of each cell added into a 96-well V-shaped plate being 2E+05 cell/well) were respectively added in the 96-well V-shaped plate; and incubation was performed in dark on ice for 30 min. Centrifugation (300 g/5 min) was performed; supernatant was discarded; 200 μL of the FCM buffer was added for washing once; centrifugation (300 g/5 min) was performed; and the supernatant was discarded. […] Centrifugation (300 g/5 min) was performed; supernatant was discarded; 200 μL of the FCM buffer was added for washing once; centrifugation (300 g/5 min) was performed; and the supernatant was discarded. […]

[2] = target: T2, full-length cynoTIGIT on CHO cells (monkey (cyno), UniProt A0A7N9I9V4 89-312); test: FACS titration on CHO-cynoTIGIT cells, PE goat anti-mouse IgG
T2 construct: whole, on cells; also called CHO-cynoTIGIT; monkey TIGIT
T2 sequence (A0A7N9I9V4 entry or part of it): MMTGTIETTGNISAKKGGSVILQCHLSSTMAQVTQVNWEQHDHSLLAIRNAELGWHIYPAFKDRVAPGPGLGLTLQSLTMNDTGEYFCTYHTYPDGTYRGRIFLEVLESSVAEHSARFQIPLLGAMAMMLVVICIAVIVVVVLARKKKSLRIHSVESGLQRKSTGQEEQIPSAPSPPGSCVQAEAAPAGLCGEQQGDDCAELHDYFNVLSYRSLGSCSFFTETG
Procedure: In order to verify that the anti-human TIGIT antibody binds to a monkey TIGIT, the following experiments were specifically performed. The CHO-engineered cell CHO-cynoTIGIT cells recombinantly expressing full-length […] cynoTIGIT were counted; centrifugated at 300 g for 5 min; resuspended with an FCM buffer; and cell density was adjusted to 4E+06 cell/mL for later use.
Samples to be detected (including a positive control antibody and a mouse monoclonal antibody) were diluted with the FCM buffer to 20 μg/mL, and then the FCM buffer was used to perform 3× serial dilutions of 12 concentration points; and an isotype control antibody was diluted with the FCM buffer to 20 μg/mL. According to an experimental design, in each well, 50 μL of the antibody and 50 μL of the cell (the volume of each cell added into a 96-well V-shaped plate being 2E+05 cell/well) were respectively added in the 96-well V-shaped plate; and incubation was performed in dark on ice for 30 min. Centrifugation (300 g/5 min) was performed; supernatant was discarded; 200 μL of the FCM buffer was added for washing once; centrifugation (300 g/5 min) was performed; and the supernatant was discarded. […] Centrifugation (300 g/5 min) was performed; supernatant was discarded; 200 μL of the FCM buffer was added for washing once; centrifugation (300 g/5 min) was performed; and the supernatant was discarded. 100 μL of the 1×PBS was added for resuspending, and on-machine detection was performed.

hTIGIT-hFc = target: T3, hTIGIT-hFc (human, UniProt Q495A1 22-141); test: FACS blocking on CHO-hCD112 cells; span of the fitted curve, unit from the y axis
T3 construct: also called antigen protein hTIGIT-hFc; human TIGIT recombinant protein carrying a human Fc tag; not shown: human Fc tag
T3 sequence (looked up): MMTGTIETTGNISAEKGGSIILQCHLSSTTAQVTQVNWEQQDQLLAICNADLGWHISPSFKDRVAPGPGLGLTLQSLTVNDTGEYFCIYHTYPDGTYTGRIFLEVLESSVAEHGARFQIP
Procedure: The CHO-engineered cell CHO-hCD112 cells recombinantly expressing full-length human CD112 were counted; centrifugated at 300 g for 5 min; resuspended with an FCM buffer; and cell density was adjusted to 4E+06 cell/mL for later use. […] According to an experimental design, in each well, 50 μL of the antigen protein and 50 μL of the cell (the volume of each cell added into a 96-well V-shaped plate being 2E+05 cell/well) were respectively added in the 96-well V-shaped plate; and incubation was performed in dark on ice for 30 min. Centrifugation (300 g/5 min) was performed; supernatant was discarded; 200 μL of the FCM buffer was added for washing once; centrifugation (300 g/5 min) was performed; and the supernatant was discarded. The antibody was added to the 96-well V-shaped plate (in 100 μL/well); and incubation was performed in dark on ice for 30 min. Centrifugation (300 g/5 min) was performed; supernatant was discarded; 200 μL of the FCM buffer was added for washing once; centrifugation (300 g/5 min) was performed; and the supernatant was discarded. Secondary antibodies (APC anti-human IgG Fc, 1:500 dilution) were added to the 96-well V-shaped plate (in 100 μL/well); and incubation was performed in dark on ice for 30 min. Centrifugation (300 g/5 min) was performed; supernatant was discarded; 200 μL of the FCM buffer was added for washing once; centrifugation (300 g/5 min) was performed; and the supernatant was discarded. 100 μL of the 1×PBS was added for resuspending, and on-machine detection was performed.

[3] = target: T1, full-length human TIGIT on cells; test: FACS titration on PBMC of healthy people (natural TIGIT); table under the plot, unit taken from the x axis Log[µg/mL]
Procedure: as §1

Row | Binder | EC50 [1] | EC50 [2] | Span (hTIGIT-hFc) | EC50 [3]
1 | B1 | 0.179 nM | – | – | –
2 | B2 | – | 0.758 nM | 215 MFI-APC | 0.0247 µg/mL
3 | B3 | – | 0.506 nM | 327 MFI-APC | 0.0217 µg/mL
4 | B4 | – | 0.354 nM | 278 MFI-APC | –
5 | B5 | – | 0.426 nM | 212 MFI-APC | –
